The supplement of paper PMC10724198
± gives the standard deviation of the averaged measurements.

System: Saccharomyces cerevisiae
Test: protein stability index of tFT-peptide fusion (C-terminal peptide) (PSI (0-1 scale)); higher = more stable (slower turnover)
Conditions: temperature: 30 C
Experimental: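 MPS profiling in S. cerevisiae of the yeast C-terminome library: the last 12 aa of each annotated ORF are fused to the C-terminus of a sfGFP-mCherry timer, after a GGGS linker. Cells are FACS-sorted into 8 mCherry/sfGFP bins and deep-sequenced. PSI runs from 0 (unstable) to 1 (stable); wild type and das1Δ backgrounds, two technical replicates each.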

[1] = genetic background: das1 deletion

Sequence	protein stability index [1]	protein stability index (genetic background: wild type)
EYMIERCRGHVL [YPL108W C-terminal 12 aa]	0.708 ± 0.032	0.753 ± 0.04
FANKSSSGGDEV [YIL089W C-terminal 12 aa]	0.6849 ± 0.0047	0.672 ± 0.028
FASPTLSFFFPI [YGL149W C-terminal 12 aa]	0.724 ± 0.013	0.7061 ± 0.002
FCTVAKIIQCFL [YDR396W C-terminal 12 aa]	0.5838 ± 0.0053	0.4942 ± 0.0047
FDAVTKTLEKYA [YKR070W C-terminal 12 aa]	0.68 ± 0.019	0.6879 ± 0.0054
FDLIKLALQRKK [AGX1 C-terminal 12 aa]	0.7118 ± 0.0048	0.68 ± 0.04
FDREDAMKKENK [DPH2 C-terminal 12 aa]	0.692 ± 0.024	0.663 ± 0.059
FDYDFLFGNDFA [OAF1 C-terminal 12 aa]	0.791 ± 0.006	0.75 ± 0.052
FFFSNSFLPASR [YJL127W-A C-terminal 12 aa]	0.7317 ± 0.0022	0.788 ± 0.11
FFTIEKYSVRRS [YOL013W-A C-terminal 12 aa]	0.7332 ± 0.0047	0.681 ± 0.01
FGYESTDQILKL [NNR1 C-terminal 12 aa]	0.738 ± 0.0047	0.708 ± 0.054
FHHTSKTFAFAD [YGR219W C-terminal 12 aa]	0.696 ± 0.022	0.674 ± 0.0088
FHLRHHKGAEEH [ATP17 C-terminal 12 aa]	0.7076 ± 0.0039	0.678 ± 0.019
FIAHLILTDALK [ULP1 C-terminal 12 aa]	0.64 ± 0.025	0.691 ± 0.039
FIRFAINIHTFI [YJL009W C-terminal 12 aa]	0.46 ± 0.0057	0.377 ± 0.011
FKQKYDADVLDK [RPL11A C-terminal 12 aa]	0.6902 ± 0.0043	0.735 ± 0.047
FLPINVNDVPST [RGD3 C-terminal 12 aa]	0.716 ± 0.0089	0.708 ± 0.069
FLWEMFELKLYL [YMR119W-A C-terminal 12 aa]	0.7071 ± 0.0016	0.71 ± 0.036
FMKELEMSEESD [RAD4 C-terminal 12 aa]	0.693 ± 0.015	0.738 ± 0.028
FQSEYNISDILS [CEP3 C-terminal 12 aa]	0.703 ± 0.0092	0.745 ± 0.023
FRHNRSNKKSGC [GEX2 C-terminal 12 aa]	0.707 ± 0.032	0.668 ± 0.069

Sequence	protein stability index [1]	protein stability index (genetic background: wild type)
FSAGNYKLPPGI [KTR3 C-terminal 12 aa]	0.68 ± 0.011	0.7009 ± 0.0015
FSFSIFFFFCLA [YFR035C C-terminal 12 aa]	0.291 ± 0.017	0.285 ± 0.0066
FSFTEEPRIVMI [DCD1 C-terminal 12 aa]	0.689 ± 0.02	0.699 ± 0.03
FSNAGVEMQIRK [GNA1 C-terminal 12 aa]	0.702 ± 0.0064	0.736 ± 0.04
FSSEYLLVHVQQ [YLR458W C-terminal 12 aa]	0.662 ± 0.011	0.654 ± 0.036
FSSSVMIIMKAS [NFT1 C-terminal 12 aa]	0.5186 ± 0.0012	0.115 ± 0.0065
FTFGTPIFLQLL [YFR010W-A C-terminal 12 aa]	0.653 ± 0.025	0.579 ± 0.1
FTFIIIQLFPAL [USE1 C-terminal 12 aa]	0.351 ± 0.016	0.385 ± 0.015
FTLVGYDKEFSD [ADH6 C-terminal 12 aa]	0.6911 ± 0.0014	0.70114 ± 0.00043
FVDDNTPLEHVC [YDL086W C-terminal 12 aa]	0.706 ± 0.011	0.7331 ± 0.0011
FVDYKTHPVGAN [RGI1 C-terminal 12 aa]	0.709 ± 0.01	0.7141 ± 0.0028
FVFALSYPYEEI [ALG2 C-terminal 12 aa]	0.713 ± 0.011	0.693 ± 0.038
FVKPGEICLREQ [RDH54 C-terminal 12 aa]	0.712 ± 0.039	0.701 ± 0.014
FVNNKGNFKDLK [ARG3 C-terminal 12 aa]	0.722 ± 0.025	0.686 ± 0.025
FWFLFPLRLPGG [IRC16 C-terminal 12 aa]	0.5766 ± 0.0015	0.5685 ± 0.0012
FWNCVDGHLKYD [INM1 C-terminal 12 aa]	0.724 ± 0.0075	0.715 ± 0.043
FWTINDDYGFLT [YLR278C C-terminal 12 aa]	0.757 ± 0.029	0.77104 ± 0.00063
GAAIAGAAAMLL [TIR3 C-terminal 12 aa]	0.718 ± 0.014	0.713 ± 0.022
GAGVMAAAAMLL [TIR2 C-terminal 12 aa]	0.714 ± 0.029	0.7089 ± 0.0066
GALERKLHIDEN [MAM1 C-terminal 12 aa]	0.6947 ± 0.0045	0.692 ± 0.046
GAVYFFSKARKA [COX26 C-terminal 12 aa]	0.7207 ± 0.0023	0.654 ± 0.037

Sequence	protein stability index [1]	protein stability index (genetic background: wild type)
GCVRSMLRDLQR [GCR2 C-terminal 12 aa]	0.6733 ± 0.0057	0.686 ± 0.01
GEDPYADLFRDF [TPK1 C-terminal 12 aa]	0.731 ± 0.0078	0.6846 ± 0.0053
GEGGHFVIKKIS [DIT1 C-terminal 12 aa]	0.6854 ± 0.0056	0.20324 ± 5.1e-05
GETIRVNYGSTQ [YJR154W C-terminal 12 aa]	0.685 ± 0.0089	0.689 ± 0.039
GEVVKTIIFGPE [SOR1 C-terminal 12 aa]	0.7 ± 0.017	0.696 ± 0.029
GEYYNLIVPSLD [YGK3 C-terminal 12 aa]	0.7209 ± 0.0012	0.698 ± 0.014
GFQTGSAKATSA [RPL37B C-terminal 12 aa]	0.703 ± 0.02	0.697 ± 0.019
GGLDCKSNVFMR [PAC1 C-terminal 12 aa]	0.697 ± 0.013	0.723 ± 0.0089
GGNKQAPGLELG [YMR242W-A C-terminal 12 aa]	0.6918 ± 0.0046	0.702 ± 0.006
GIILRSCWNPRQ [YOL159C-A C-terminal 12 aa]	0.721 ± 0.019	0.69 ± 0.0087
GILCSLMEFFTN [TDA6 C-terminal 12 aa]	0.727 ± 0.053	0.712 ± 0.059
GKKLVQEAFRIV [YPL039W C-terminal 12 aa]	0.715 ± 0.019	0.675 ± 0.035
GKRIIGMLHLDS [PUF4 C-terminal 12 aa]	0.685 ± 0.037	0.699 ± 0.01
GKSSKKKNRSRK [SSH4 C-terminal 12 aa]	0.726 ± 0.052	0.692 ± 0.018
GLEKKKKKQNNQ [NPR1 C-terminal 12 aa]	0.69 ± 0.015	0.662 ± 0.0018
GLLFDKKKKARK [NOP19 C-terminal 12 aa]	0.687 ± 0.012	0.691 ± 0.043
GNNNCPLHMDYI [STE5 C-terminal 12 aa]	0.7274 ± 0.0071	0.723 ± 0.015
GQTSRTVTPAPN [ITC1 C-terminal 12 aa]	0.726 ± 0.026	0.6887 ± 0.0059
GRGAISYSDITI [PEP5 C-terminal 12 aa]	0.707 ± 0.018	0.69 ± 0.0077
GRLFEGMPGTET [ITT1 C-terminal 12 aa]	0.709 ± 0.0093	0.71 ± 0.03
GSEIDFTDYLGP [PUT3 C-terminal 12 aa]	0.729 ± 0.012	0.716 ± 0.017

Sequence	protein stability index [1]	protein stability index (genetic background: wild type)
GSLLLGLISFLL [EGT2 C-terminal 12 aa]	0.669 ± 0.0091	0.6486 ± 0.0054
GSSGRLTASPVY [PEX2 C-terminal 12 aa]	0.696 ± 0.023	0.684 ± 0.022
GTKEYCKMIDFL [YLR108C C-terminal 12 aa]	0.704 ± 0.014	0.688 ± 0.019
GTKEYYKGYEYL [MRX16 C-terminal 12 aa]	0.6984 ± 0.0016	0.6641 ± 0.0017
GTLESFFKRKAK [POL32 C-terminal 12 aa]	0.732 ± 0.015	0.707 ± 0.03
GVETLLDIFMKF [ARG82 C-terminal 12 aa]	0.74146 ± 0.00055	0.706 ± 0.02
GVFEADGLEAVH [YLR235C C-terminal 12 aa]	0.717 ± 0.029	0.7688 ± 0.0057
GVRRSVRLNNRV [MCM4 C-terminal 12 aa]	0.699 ± 0.019	0.681 ± 0.015
GVSFHVQVTMPQ [TRS33 C-terminal 12 aa]	0.711 ± 0.023	0.704 ± 0.049
GWEVLSVYSFTR [MTQ2 C-terminal 12 aa]	0.727 ± 0.042	0.737 ± 0.098
GWFEEVRDHKRH [SKY1 C-terminal 12 aa]	0.731 ± 0.017	0.753 ± 0.022
GWPLKDGNKKRK [OTO1 C-terminal 12 aa]	0.682 ± 0.025	0.706 ± 0.065
GYCFEFTLYNRK [DFR1 C-terminal 12 aa]	0.7243 ± 0.0021	0.688 ± 0.013
GYKPIILYHVIH [YDL025W-A C-terminal 12 aa]	0.691 ± 0.024	0.598 ± 0.025
GYYQRRNKRKRA [UTP20 C-terminal 12 aa]	0.749 ± 0.012	0.69 ± 0.046
HCGARLTVIPKK [YER137C C-terminal 12 aa]	0.693 ± 0.016	0.688 ± 0.028
HELIKKRWDDRK [NCE101 C-terminal 12 aa]	0.712 ± 0.016	0.679 ± 0.018
HETFDFRNLKLR [YER121W C-terminal 12 aa]	0.701 ± 0.043	0.698 ± 0.024
HETMVNGSKRRL [DIF1 C-terminal 12 aa]	0.686 ± 0.014	0.639 ± 0.014
